Experimental data from article PMC3807590.

Legend:
[1] = target: Chicken skeletal muscle α-actin (F-actin, unlabeled) (chicken) (UniProt P68139); assay: co-sedimentation; increasing tropomyosin (0-10 µM) mixed with 5 µM actin in F-buffer (2 mM HEPES, pH 7.6, 40 mM NaCl, 5 mM MgCl2) at 22°C, ultracentrifuged; supernatants and pellets on SDS-PAGE; apparent constants (Kapp)
[2] = target: Chicken skeletal muscle α-actin (F-actin, unlabeled) (chicken) (UniProt P68139)
[3] = target: Chicken skeletal muscle α-actin labeled with DABMI at Cys374 (chicken) (UniProt P68139)

Ala232Cys-TM1b9a labeled with AEDANS was tested, and the Ka [1] was 1.24e+07 M⁻¹.

“Chicken skeletal myosin subfragment 1 (S1) (domain or fragment)” was tested, and the Actin–myosin S1 ATPase activity in the presence of TM1b9a/A232C; 0.8 µM S1, 9.2 µM F-actin, 1.2 µM tropomyosin (nmol Pi/mg S1/min) [2] was 126, the Actin–myosin S1 ATPase activity in the presence of TM1b9a; 0.8 µM S1, 9.2 µM F-actin, 1.2 µM tropomyosin (nmol Pi/mg S1/min) [2] was 108 and the Actin–myosin S1 ATPase activity in the presence of TM2/S269C; 0.8 µM S1, 9.2 µM F-actin, 1.2 µM tropomyosin (nmol Pi/mg S1/min) [2] was 112. For the same substance, the Actin–myosin S1 ATPase activity in the presence of TM2; 0.8 µM S1, 9.2 µM F-actin, 1.2 µM tropomyosin (nmol Pi/mg S1/min) [2] was 91.7, the Actin–myosin S1 ATPase activity in the presence of TM5a/S232C; 0.8 µM S1, 9.2 µM F-actin, 1.2 µM tropomyosin (nmol Pi/mg S1/min) [2] was 184 and the Actin–myosin S1 ATPase activity in the presence of TM5a; 0.8 µM S1, 9.2 µM F-actin, 1.2 µM tropomyosin (nmol Pi/mg S1/min) [2] was 169. The Actin–myosin S1 ATPase activity in the presence of skTM/A269C; 0.8 µM S1, 9.2 µM F-actin, 1.2 µM tropomyosin (nmol Pi/mg S1/min) [2] was 104, the Actin–myosin S1 ATPase activity in the presence of skTM; 0.8 µM S1, 9.2 µM F-actin, 1.2 µM tropomyosin (nmol Pi/mg S1/min) [2] was 103 and the S1/actin molar ratio of strongly bound myosin heads required for half-maximal change in FRET between AEDANS-TM1b9a/A232C and DABMI-actin (S1/actin molar ratio) [3] was 0.14. It also gave an S1/actin molar ratio of strongly bound myosin heads required for half-maximal change in FRET between AEDANS-TM2/S269C and DABMI-actin (S1/actin molar ratio) [3] of 0.12, an S1/actin molar ratio of strongly bound myosin heads required for half-maximal change in FRET between AEDANS-TM5a/S232C and DABMI-actin (S1/actin molar ratio) [3] of 0.08 and an S1/actin molar ratio of strongly bound myosin heads required for half-maximal change in FRET between AEDANS-skTM/A269C and DABMI-actin (S1/actin molar ratio) [3] of 0.15.

For Chimeric rat α-tropomyosin TM1b9a, the Ka [1] was 1.27e+07 M⁻¹.

With “Recombinant rat non-muscle α-tropomyosin isoform TM2 (natural protein)” the Ka [1] was 2.25e+07 M⁻¹.

“Recombinant rat non-muscle α-tropomyosin isoform TM5a (natural protein)” was tested, and the Ka [1] was 1.42e+07 M⁻¹.

In the case of “Ser232Cys-TM5a labeled with AEDANS (natural protein)”, the Ka [1] is reported as 1.49e+07 M⁻¹.

“Ser269Cys-TM2 labeled with AEDANS (natural protein)” was tested, and the Ka [1] was 2.04e+07 M⁻¹.
